# Source: FireProtDB (doi:10.1074/jbc.m111.277210)
# Values joined by “and” are separate entries in the source; they are usually repeats but may differ in a detail not shown here. Equal values may be shown once.
# B1: S247A, Q72SM7 (parent)
# chain: MKKLSILAISVALFASITACGAFGGLPSLKSSFVLSEDTIPGTNETVKTLLPYGSVINYYGYVKPGQAPDGLVDGNKKAYYLYVWIPAVIAEMGVRMISPTGEIGEPGDGDLVSDAFKAATPEEKSMPHWFDTWIRVERMSAIMPDQIAKAAKAKPVQKLDDDDDGDDTYKEERHNKYNSLTRIKIPNPPKSFDDLKNIDTKKLLVRGLYRISFTTYKPGEVKGSFVASVGLLFPPGIPGVSPLIHSNPEELQKQAIAAEESLKKAASDATK
# Variants of: B1
# Conditions: Leptospira interrogans serogroup Icterohaemorrhagiae serovar copenhageni (strain Fiocruz L1-130); pH 8; Thermal; CD; Tris-HCl; KCl; structure 3FRL; whole UniProt chain shown
Variant,"change of melting temperature, mutant - wild type (higher = more stable)",Tm
MKKLSILAISVALFASITACGAFGGLPSLKSSFVLSEDTIPGTNETVKTLLPYGSVINYYGYVKPGQAPDGLVDGNKKAYYLYVWIPAVIAEMGVRMISPTGEIGEPGDGDLVSDAFKAATPEEKSMPHWFDTWIRVERMSAIMPDQIAKAAKAKPVQKLDDDDDGDDTYKEERHNKYNSLTRIKIPNPPKSFDDLKNIDTKKLLVRGLYRISFTTYKPGEVKGSFVASVGLLFPPGIPGVSPLIHANPEELQKQAIAAEESLKKAASDATK [S247A],0 °C and -1 °C,–
MKKLSILAISVALFASITACGAFGGLPSLKSSFVLSEDTIPGTNETVKTLLPYGSVINYYGYVKPGAAPDGLVDGNKKAYYLYVWIPAVIAEMGVRMISPTGEIGEPGDGDLVSDAFKAATPEEKSMPHWFDTWIRVERMSAIMPDQIAKAAKAKPVQKLDDDDDGDDTYKEERHNKYNSLTRIKIPNPPKSFDDLKNIDTKKLLVRGLYRISFTTYKPGEVKGSFVASVGLLFPPGIPGVSPLIHSNPEELQKQAIAAEESLKKAASDATK [Q67A],0 °C,–
MKKLSILAISVALFASITACGAFGGLPSLKSSFVLSEDTIPGTNETVKTLLPYGSVINYYGYVKPGQAPDGLVDGNKKAYYLYVWIPAVIAEMGVRMISPTGEIGEPGDGDLVSDAFKAATPEEKSMPHWFDTWIRVERMSAIMPDQIAKAAKAKPVQKLDDAAAAAATYKEERHNKYNSLTRIKIPNPPKSFDDLKNIDTKKLLVRGLYRISFTTYKPGEVKGSFVASVGLLFPPGIPGVSPLIHSNPEELQKQAIAAEESLKKAASDATK [D163A D164A D165A G166A D167A D168A],–,51 °C and 52 °C
